Key:
Test in all cases: flow cytometry, soluble tagged antigen staining T cells that carry the construct
[1] = molecular target: T1, Human PD-1 / PDCD1 Protein, His Tag (ACRO) (human, UniProt Q15116 25-167)
T1 construct: Bought reagent (ACRO); no catalogue number, no construct limits; also called CD279; not shown: His tag

[2] = molecular target: T2, Human CTLA-4 / CD152 Protein, Fc Tag (ACRO) (human, UniProt P16410 36-161, limits assumed)
T2 construct: Bought reagent (ACRO); no catalogue number, no construct limits; not shown: Fc tag
T2 sequence (looked up): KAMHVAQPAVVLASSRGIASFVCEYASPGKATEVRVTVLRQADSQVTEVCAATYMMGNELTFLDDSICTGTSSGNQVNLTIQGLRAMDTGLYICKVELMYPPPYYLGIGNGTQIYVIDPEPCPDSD

[3] = molecular target: T3, Human LAG-3 / CD223 Protein, His Tag (ACRO) (human, UniProt P18627 23-450)
T3 construct: Bought reagent (ACRO); no catalogue number, no construct limits; not shown: His tag
T3 sequence (looked up): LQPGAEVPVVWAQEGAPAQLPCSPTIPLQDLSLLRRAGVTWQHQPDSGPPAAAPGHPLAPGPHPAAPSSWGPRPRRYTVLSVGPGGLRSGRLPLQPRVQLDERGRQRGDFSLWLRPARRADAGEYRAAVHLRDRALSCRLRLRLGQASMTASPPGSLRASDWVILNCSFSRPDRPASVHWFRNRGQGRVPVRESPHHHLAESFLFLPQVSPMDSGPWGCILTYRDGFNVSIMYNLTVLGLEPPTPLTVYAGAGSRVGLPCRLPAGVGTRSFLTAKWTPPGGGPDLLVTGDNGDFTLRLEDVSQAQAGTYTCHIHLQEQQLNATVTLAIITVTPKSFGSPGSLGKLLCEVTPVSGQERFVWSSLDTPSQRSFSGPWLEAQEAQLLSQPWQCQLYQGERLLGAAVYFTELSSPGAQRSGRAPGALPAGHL

T1 sequence (Q15116 25-167 limits assumed): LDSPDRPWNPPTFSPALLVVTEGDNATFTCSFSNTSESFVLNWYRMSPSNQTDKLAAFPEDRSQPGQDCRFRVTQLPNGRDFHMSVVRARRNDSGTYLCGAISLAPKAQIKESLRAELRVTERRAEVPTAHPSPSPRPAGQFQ

| Binder | binding result [1] | binding result [2] | binding result [3] |
| --- | --- | --- | --- |
| immunosuppressive molecule of plasmid CAR19-PC4 (anti-PD1 scFv, linker, anti-CTLA4 scFv, IgG4 hinge, CD28 transmembrane region, CD28 co-stimulatory domain), on … (other, Membrane-anchored on transduced T cells that also express the anti-CD19 CAR) QVQLVQSGVEVKKPGASVKVSCKASGYTFTNYYMYWVRQAPGQGLEWMGGINPSNGGTNFNEKFKNRVTLTTDSSTTTAYMELKSLQFDDTAVYYCARRDYRFDMGFDYWGQGTTVTVSSGGGGSGGGGSGGGGSEIVLTQSPATLSLSPGERATLSCRASKGVSTSGYSYLHWYQQKPGQAPRLLIYLASYLESGVPARFSGSGSGTDFTLTISSLEPEDFAVYYCQHSRDLPLTFGGGTKVEIKGGGGSGGGGSGGGGSQVQLVESGGGVVQPGRSLRLSCAASGFTFSSYGMHWVRQAPGKGLEWVAVIWYDGSNKYYADSVKGRFTISRDNSKNTLYLQMNSLRAEDTAVFYCARAPNYIGAFDVWGQGTMVTVSSGGGGSGGGGSGGGGSDIQMTQSPSSLSASVGDRVTITCRASQGISSWLAWYQQKPEKAPKSLIYAASSLQSGVPSRFSGSGSGTDFTLTISSLQPEDFATYYCQQYNSYPPTFGQGTKVEIKESKYGPPCPPCPFWVLVVVGGVLACYSLLVTVAFIIFWVRSKRSRLLHSDYMNMTPRRPGPTRKHYQPYAPPRDFAAYRS | binds | binds |  |
| immunosuppressive molecule of plasmid CAR19-AL3 (anti-NKG2A scFv, linker, anti-LAG3 scFv, IgG4 hinge, CD28 transmembrane region, CD28 co-stimulatory domain), … (other, Membrane-anchored on lentivirally transduced human T cells that also express the anti-CD19 CAR (separated by T2A)) EIVLTQSPATLSLSPGERATMTCSASSSVSSYIYWYQQKPGQAPRLLIYLTSNLASGIPARFSGSGSGTDFTLTISSLEPEDFATYYCQQWSGNPYTFGQGTKVEIKGSTSGSGKPGSGEGSTKGEVQLVESGGGLVKPGGSLRLSCAASGFTFSSYAMSWVRQAPGKGLEWVAEISSGGSYTYYPDSVKGRFTISRDNAKNSLYLQMNSLRAEDTAVYYCTRHGDYPRFFDVWGQGTLVTVSSGGGGSGGGGSGGGGSQVQLQQWGAGLLKPSETLSLTCAVYGGSFSDYYWNWIRQPPGKGLEWIGEINHRGSTNSNPSLKSRVTLSLDTSKNQFSLKLRSVTAADTAVYYCAFGYSDYEYNWFDPWGQGTLVTVSSGGGGSGGGGSGGGGSEIVLTQSPATLSLSPGERATLSCRASQSISSYLAWYQQKPGQAPRLLIYDASNRATGIPARFSGSGSGTDFTLTISSLEPEDFAVYYCQQRSNWPLTFGQGTNLEIKRESKYGPPCPPCPFWVLVVVGGVLACYSLLVTVAFIIFWVRSKRSRLLHSDYMNMTPRRPGPTRKHYQPYAPPRDFAAYRS |  |  | binds |
| immunosuppressive molecule of plasmid CAR19-PL3 (anti-PD1 scFv, linker, anti-LAG3 scFv, IgG4 hinge, CD28 transmembrane region, CD28 co-stimulatory domain), on … (other, Membrane-anchored on transduced T cells that also express the anti-CD19 CAR) QVQLVQSGVEVKKPGASVKVSCKASGYTFTNYYMYWVRQAPGQGLEWMGGINPSNGGTNFNEKFKNRVTLTTDSSTTTAYMELKSLQFDDTAVYYCARRDYRFDMGFDYWGQGTTVTVSSGGGGSGGGGSGGGGSEIVLTQSPATLSLSPGERATLSCRASKGVSTSGYSYLHWYQQKPGQAPRLLIYLASYLESGVPARFSGSGSGTDFTLTISSLEPEDFAVYYCQHSRDLPLTFGGGTKVEIKGGGGSGGGGSGGGGSQVQLQQWGAGLLKPSETLSLTCAVYGGSFSDYYWNWIRQPPGKGLEWIGEINHRGSTNSNPSLKSRVTLSLDTSKNQFSLKLRSVTAADTAVYYCAFGYSDYEYNWFDPWGQGTLVTVSSGGGGSGGGGSGGGGSEIVLTQSPATLSLSPGERATLSCRASQSISSYLAWYQQKPGQAPRLLIYDASNRATGIPARFSGSGSGTDFTLTISSLEPEDFAVYYCQQRSNWPLTFGQGTNLEIKRESKYGPPCPPCPFWVLVVVGGVLACYSLLVTVAFIIFWVRSKRSRLLHSDYMNMTPRRPGPTRKHYQPYAPPRDFAAYRS | binds |  | binds |
| immunosuppressive molecule of plasmid CAR19-PT3 (anti-PD1 scFv, linker, anti-TIM3 scFv, IgG4 hinge, CD28 transmembrane region, CD28 co-stimulatory domain), on … (other, Membrane-anchored on transduced T cells that also express the anti-CD19 CAR) QVQLVQSGVEVKKPGASVKVSCKASGYTFTNYYMYWVRQAPGQGLEWMGGINPSNGGTNFNEKFKNRVTLTTDSSTTTAYMELKSLQFDDTAVYYCARRDYRFDMGFDYWGQGTTVTVSSGGGGSGGGGSGGGGSEIVLTQSPATLSLSPGERATLSCRASKGVSTSGYSYLHWYQQKPGQAPRLLIYLASYLESGVPARFSGSGSGTDFTLTISSLEPEDFAVYYCQHSRDLPLTFGGGTKVEIKGGGGSGGGGSGGGGSQVQLVQSGAEVKKPGSSVKVSCKASGYTFTSYNMHWVRQAPGQGLEWMGDIYPGNGDTSYNQKFKGRVTITADKSTSTVYMELSSLRSEDTAVYYCARVGGAFPMDYWGQGTTVTVSSGGGGSGGGGSGGGGSAIQLTQSPSSLSASVGDRVTITCRASESVEYYGTSLMQWYQQKPGKAPKLLIYAASNVESGVPSRFSGSGSGTDFTLTISSLQPEDFATYFCQQSRKDPSTFGGGTKVEIKESKYGPPCPPCPFWVLVVVGGVLACYSLLVTVAFIIFWVRSKRSRLLHSDYMNMTPRRPGPTRKHYQPYAPPRDFAAYRS | binds |  |  |
| immunosuppressive molecule of plasmid CAR19-C4 (anti-CTLA4 scFv, IgG4 hinge, CD28 transmembrane region, CD28 co-stimulatory domain), on CAR19-C4 T cells (other, Membrane-anchored on transduced T cells that also express the anti-CD19 CAR) QVQLVESGGGVVQPGRSLRLSCAASGFTFSSYGMHWVRQAPGKGLEWVAVIWYDGSNKYYADSVKGRFTISRDNSKNTLYLQMNSLRAEDTAVFYCARAPNYIGAFDVWGQGTMVTVSSGGGGSGGGGSGGGGSDIQMTQSPSSLSASVGDRVTITCRASQGISSWLAWYQQKPEKAPKSLIYAASSLQSGVPSRFSGSGSGTDFTLTISSLQPEDFATYYCQQYNSYPPTFGQGTKVEIKESKYGPPCPPCPFWVLVVVGGVLACYSLLVTVAFIIFWVRSKRSRLLHSDYMNMTPRRPGPTRKHYQPYAPPRDFAAYRS |  | binds |  |
| immunosuppressive molecule of plasmid CAR19-C4L3 (anti-CTLA4 scFv, linker, anti-LAG3 scFv, IgG4 hinge, CD28 transmembrane region, CD28 co-stimulatory domain), … (other, Membrane-anchored on transduced T cells that also express the anti-CD19 CAR) QVQLVESGGGVVQPGRSLRLSCAASGFTFSSYGMHWVRQAPGKGLEWVAVIWYDGSNKYYADSVKGRFTISRDNSKNTLYLQMNSLRAEDTAVFYCARAPNYIGAFDVWGQGTMVTVSSGGGGSGGGGSGGGGSDIQMTQSPSSLSASVGDRVTITCRASQGISSWLAWYQQKPEKAPKSLIYAASSLQSGVPSRFSGSGSGTDFTLTISSLQPEDFATYYCQQYNSYPPTFGQGTKVEIKGGGGSGGGGSGGGGSQVQLQQWGAGLLKPSETLSLTCAVYGGSFSDYYWNWIRQPPGKGLEWIGEINHRGSTNSNPSLKSRVTLSLDTSKNQFSLKLRSVTAADTAVYYCAFGYSDYEYNWFDPWGQGTLVTVSSGGGGSGGGGSGGGGSEIVLTQSPATLSLSPGERATLSCRASQSISSYLAWYQQKPGQAPRLLIYDASNRATGIPARFSGSGSGTDFTLTISSLEPEDFAVYYCQQRSNWPLTFGQGTNLEIKRESKYGPPCPPCPFWVLVVVGGVLACYSLLVTVAFIIFWVRSKRSRLLHSDYMNMTPRRPGPTRKHYQPYAPPRDFAAYRS |  | binds | binds |
| immunosuppressive molecule of plasmid CAR19-C4T3 (anti-CTLA4 scFv, linker, anti-TIM3 scFv, IgG4 hinge, CD28 transmembrane region, CD28 co-stimulatory domain), … (other, Membrane-anchored on transduced T cells that also express the anti-CD19 CAR) QVQLVESGGGVVQPGRSLRLSCAASGFTFSSYGMHWVRQAPGKGLEWVAVIWYDGSNKYYADSVKGRFTISRDNSKNTLYLQMNSLRAEDTAVFYCARAPNYIGAFDVWGQGTMVTVSSGGGGSGGGGSGGGGSDIQMTQSPSSLSASVGDRVTITCRASQGISSWLAWYQQKPEKAPKSLIYAASSLQSGVPSRFSGSGSGTDFTLTISSLQPEDFATYYCQQYNSYPPTFGQGTKVEIKGGGGSGGGGSGGGGSQVQLVQSGAEVKKPGSSVKVSCKASGYTFTSYNMHWVRQAPGQGLEWMGDIYPGNGDTSYNQKFKGRVTITADKSTSTVYMELSSLRSEDTAVYYCARVGGAFPMDYWGQGTTVTVSSGGGGSGGGGSGGGGSAIQLTQSPSSLSASVGDRVTITCRASESVEYYGTSLMQWYQQKPGKAPKLLIYAASNVESGVPSRFSGSGSGTDFTLTISSLQPEDFATYFCQQSRKDPSTFGGGTKVEIKESKYGPPCPPCPFWVLVVVGGVLACYSLLVTVAFIIFWVRSKRSRLLHSDYMNMTPRRPGPTRKHYQPYAPPRDFAAYRS |  | binds |  |
